These results are taken from the domain aggregation screens of Martell et al. (2025).

This data set is described as follows: soluble fraction after stress (log2 fold change); higher = more stays soluble; pooled small domains, quantitative proteomics. The note with it: stress: 50 degC. The method in brief:
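The measure of aggregation propensity here is the base-two logarithm of the fold change in the soluble amount of each protein after stress. A higher value means more of that protein stays in solution. Stress was applied at 50°C to pooled libraries of small protein domains, read out by high-throughput quantitative proteomics.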
As for “HMETFGEKDLDELIGRNVELITHDGKVREGLVDSVDRYNVSLVRYLDAGEVAMMVRRREVKAVRLK”, the “soluble fraction (log2)” value amounted to 0.0419.

Take “HMETFGLSQRELQILSQLHKGQPLKEFAASLFITESTLKTHLSAIYRKMSVKNRVQAIEKAKQSGL”: the “soluble fraction (log2)” value was -1.24. To “HMETGEDSLRRYFNSLPGSASKREILEDNPTVSQRTTERILQKLQAEGFIEKVGAARATRYRKVKQ” belongs 0.209; to “HMETGELQQILEDVFSKNIGIVQDKREAAFSILMGMIMAKSRGRADGALVSTLLKKKLTEFLATSDQVR”, 0.0929. With “HMETGNEDYRVGKELAYDGNYKAATIYLMKSIKDDPNNPDAFNMLGFSHRKLGNNDEAYIYYNKALEL” the figure was -0.387; with “HMETKKEIIEAINELEEKYRNAIYLTSIEKLSYEETSKILGQSLSNTKNLIHRGKQQLRKILIKK”, -0.214.

As for “HMETLEDHRKKTRQQLFDALSHLLQTSTFESLTMAKIAEEAGVGRTAVYNHFQDKEALLLAFITYETGQ”, the “soluble fraction (log2)” value was -1.05. Consider “HMETLETYTSRLRQLEDITNNFKGVDKSFAIQAGREIRVMVVPEQVSDADMILMARDISKAIEAELEYPGQ”, for which the “soluble fraction (log2)” value was -0.0847. With “HMETLGADLRALRKSRGLTLLDMAESLGRSVGWLSQVERDLSDPSISDLREIAELLGVPISMLFRH” the figure was -2.86; with “HMETLKEMDSKGAINASEVNVREGAGTSSSKMYSLSKGASVDVTGIKGDWYRVHTSKGTGYVLAKYVTLVS”, -0.0779. To “HMETLYGQIVNDIMEKIESNAWPVGYVIPTESDFQKQYGVSRATVRNAILKLAHLGYLVRKKGSGTYVTRP” belongs -0.975; to “HMETPEIPGLTPRQVEIMLLVGKGYSNKEIARFLTISPETVKTHLKEVFLRFGLRNRVEAIDFTRQNGL”, -0.363.

For the sequence “HMETPLSAADFKIVFGEEYEIGTDANGLPKMGSRINRQLQNRFLTWASVNKRKATMSAYQDWVASDPAAQ”, the “soluble fraction (log2)” value was -0.336. Consider “HMETQVKVPNVVGMTQSKAIAKLKESKLDYEVQEQKHDGDKGKVVDQSEAEGTYVDRGTKVIIYVSTGE”, for which the “soluble fraction (log2)” value is -0.088.

Regarding “HMETSIQFIRLEIGHNHPWVNQTLKEIPTIPGTLIAAVLRGDEDQAIIPKGDTLLKEGDSVIIGAKEYQD”, the “soluble fraction (log2)” value is -0.919.

“HMETSLVIQIDGAVNSPGIYQVTPGTRIFEALELAGGVREDAQTEALNLALPVYDGQRISIPSSFA”: the “soluble fraction (log2)” value amounted to 0.0796.

On to “HMETTVSYSGVVTASVLRIRKGPSVSSSVAGTLKKGTGVSIIFEDNGWGKLADGSGWVSLTYIKKNSTP”, for which the “soluble fraction (log2)” value is -0.302. Turning to “HMETWDQAYETIKQNILNLTYPPGMPLTEAKLAEELGMSRSPVRTALRMLQTDGLIVTDYYKSMTVKEI”, the “soluble fraction (log2)” value was -1.71.

Regarding “HMETWKLYKRAYKKYYARYMKGNMSEADFKAWATQAAADRDAAIEQITPEIDAALKAQIIEQLREKLNR”, the “soluble fraction (log2)” value was -0.856. With “HMEVAAAENYRSKLSSFAKDTISVWQTELLLGTISDDDKASLTEWMAYIKALQVVDTSDPESITWPTEPT” the figure was -1.45; with “HMEVAASEQRDNLWALARRVLSGEQYDVLYLRYVEDFSVAQIADVVGKTQTHVKVLLFRGRNNLGSRLRS”, 0.199.

For the sequence “HMEVENAQLLARLTPQEHRVFERVVAGLSNREIGSEMDISIKTVEVHRARVMRKLEANSVAELVRFHIHN”, the “soluble fraction (log2)” value was -2.25. For “HMEVGDTYLGKVTRVSSFGAFIEVLPGKEGLMRQNDAGEGGMPEVGDEVMVRVMEVDHLGRINLSGKLDD”, the “soluble fraction (log2)” value was -0.0268. With “HMEVGKRIAEIRKENRMSQEQFGQLFHVTRQTVSNWENAKSYPDLQTLVKISELFEITMDELLK” the figure was -0.511.

Turning to “HMEVKVSGHLEAIGGVYHMKLSWIDDAGKRRRKSKSTGLAERGNKKRANDMLIDFMREQEAEIAASGD”, the “soluble fraction (log2)” value was -1.02. As for “HMEVLSKRGSTGTEVINIQKKLKNWGYYTGSVDGIYGKLTEEAVRYFQRTNGLTVDGIAGKNTLAAMGIA”, the “soluble fraction (log2)” value was -0.356.

Turning to “HMEVNLEPLIALLRKHRDLDLSGYSKSTLGRRITYFMGLNKISSIDELGRRLAEDDLLFQEFLDKLT”, the “soluble fraction (log2)” value is -0.0655.
